Test results: US20210163606A1 (ATYR PHARMA, published 2021)

Assays:
[1] = target: T1, mouse NRP2 M400A on transfected Expi293 cells (Mouse, UniProt O35375 21-931); experiment: flow cytometry, aNRP2-10v10 at 10 nM on transfected Expi293 cells gated on live, single, NRP2 expressing cells [panel 11B]
T1 construct: whole, on cells
T1 sequence (looked up): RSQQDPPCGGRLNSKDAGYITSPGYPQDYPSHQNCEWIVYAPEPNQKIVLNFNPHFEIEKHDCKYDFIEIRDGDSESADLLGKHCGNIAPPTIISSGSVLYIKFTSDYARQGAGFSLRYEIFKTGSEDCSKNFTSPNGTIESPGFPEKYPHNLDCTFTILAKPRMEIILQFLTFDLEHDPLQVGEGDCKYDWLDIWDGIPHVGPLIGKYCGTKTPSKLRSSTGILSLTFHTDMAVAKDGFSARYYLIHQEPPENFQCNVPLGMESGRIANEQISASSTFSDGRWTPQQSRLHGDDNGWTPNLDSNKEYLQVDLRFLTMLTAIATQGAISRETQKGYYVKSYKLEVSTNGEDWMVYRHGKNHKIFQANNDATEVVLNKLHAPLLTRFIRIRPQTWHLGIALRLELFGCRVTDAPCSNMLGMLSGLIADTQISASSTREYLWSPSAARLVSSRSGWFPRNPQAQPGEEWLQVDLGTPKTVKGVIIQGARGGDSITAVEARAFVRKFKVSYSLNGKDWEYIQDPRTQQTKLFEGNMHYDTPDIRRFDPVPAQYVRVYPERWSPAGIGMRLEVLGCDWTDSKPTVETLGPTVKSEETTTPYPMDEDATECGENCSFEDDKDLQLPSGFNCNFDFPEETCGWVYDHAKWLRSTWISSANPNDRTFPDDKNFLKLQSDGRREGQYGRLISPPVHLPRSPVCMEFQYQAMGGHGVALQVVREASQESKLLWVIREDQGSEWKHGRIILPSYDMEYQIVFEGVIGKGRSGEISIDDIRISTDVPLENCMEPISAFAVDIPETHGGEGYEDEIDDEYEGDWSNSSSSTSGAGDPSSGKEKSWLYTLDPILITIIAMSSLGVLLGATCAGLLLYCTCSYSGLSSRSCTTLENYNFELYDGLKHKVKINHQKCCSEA
Description: (§1) FIGS. 11A-11B show the measurement of antibody binding to Expi293 cells over-expressing NRP2. […] Gating for NRP2 over-expressing cells is shown.
(§2) Human NRP2a (version 2; see Table N1) and mouse NRP2v2 cDNAs were obtained from Origene. […] Human and mouse NRP2, expression vectors, along with expression vectors encoding all 6 mutants were transfected into Expi293 cells at 1 million cells/mL, by standard techniques. Approximately 40 hours post transfection cells were co-stained with aNRP2-10v10, and a species agnostic anti-NRP2 a1 specific binding antibody.

[2] = target: T2, mouse NRP2 I383V on transfected Expi293 cells (Mouse, UniProt O35375 21-931); experiment: as above
T2 construct: whole, on cells; also called 1383V
T2 sequence (looked up): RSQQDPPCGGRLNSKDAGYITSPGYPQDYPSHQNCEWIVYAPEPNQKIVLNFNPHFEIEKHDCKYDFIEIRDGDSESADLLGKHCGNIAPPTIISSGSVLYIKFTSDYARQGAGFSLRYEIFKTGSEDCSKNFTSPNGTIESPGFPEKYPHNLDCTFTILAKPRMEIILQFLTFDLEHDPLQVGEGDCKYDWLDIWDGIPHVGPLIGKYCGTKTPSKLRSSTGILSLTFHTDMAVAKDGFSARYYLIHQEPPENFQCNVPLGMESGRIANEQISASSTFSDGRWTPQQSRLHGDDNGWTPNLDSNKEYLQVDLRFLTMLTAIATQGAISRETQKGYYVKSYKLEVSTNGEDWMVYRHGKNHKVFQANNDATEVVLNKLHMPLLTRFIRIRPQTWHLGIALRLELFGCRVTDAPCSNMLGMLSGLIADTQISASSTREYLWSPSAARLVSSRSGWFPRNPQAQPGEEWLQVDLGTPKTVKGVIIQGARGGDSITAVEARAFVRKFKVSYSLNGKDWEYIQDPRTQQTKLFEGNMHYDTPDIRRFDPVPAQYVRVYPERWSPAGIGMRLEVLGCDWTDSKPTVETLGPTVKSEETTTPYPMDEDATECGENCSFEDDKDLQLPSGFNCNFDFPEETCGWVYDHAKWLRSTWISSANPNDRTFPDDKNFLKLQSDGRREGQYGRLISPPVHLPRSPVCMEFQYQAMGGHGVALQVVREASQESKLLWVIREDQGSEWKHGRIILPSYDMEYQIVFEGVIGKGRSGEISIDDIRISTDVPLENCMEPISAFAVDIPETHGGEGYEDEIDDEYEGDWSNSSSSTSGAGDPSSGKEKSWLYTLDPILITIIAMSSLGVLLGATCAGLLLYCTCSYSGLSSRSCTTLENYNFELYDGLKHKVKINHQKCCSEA
Description: as §1, §2

B1: aNRP2-10v10 (antibody, V domains shown)
VH: EVQLVQSGAEVKKPGATVKISCKVSGFNIKDYYVHWVQQAPGKGLEWMGRIDVEDDETKYAPKFQGRVTITADTSTDTAYMELSSLRSEDTAVYYCATPIYGAREAWFAYWGQGTLVTVSS
VL: DIQMTQSPSSLSASVGDRVTITCTASSSVSSSYLHWYQQKPGKAPKLLIYRTSNLASGVPSRFSGSGSGTDFTLTISSLQPEDFATYYCHQYYRSPPTFGGGTKVEIK
B1: no binding (tested: 10 nM) [1]; no binding (tested: 10 nM) [2].
